Measurements from the RNAGym collection of RNA variant scans (doi:10.1073/pnas.2313332121).
Fewer inactive variants are shown than the library holds.

B1: TPR 5TU (parent)
chain: GGAUCUUCUCGAUCUAACAAAAAAGACAAAUCUGCCACAAAGCUUGAGAGCAUCUUCGGAUGCAGAGGCGGCAGCCUUCGGUGGCGCGAUAGCGCCAACGUUCUCAACUAUGACACGCAAAACGCGUGCUCCGUUGAAUGGAGUUUAUCAUG

Variants of: B1
Assay: polymerase ribozyme fitness, log enrichment relative to wild type (log ratio); higher = more active; in vitro selection for triplet polymerase activity
In short: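 Each subunit of a heterodimeric triplet polymerase ribozyme was represented by a PCR-built, transcribed mutant library that underwent triplicate single-round in vitro selection with frozen incubation at −7 °C. Extended constructs were recovered by gel excision, streptavidin-bead capture and RT-PCR, and Illumina sequencing of input and output libraries kept genotypes with ≥10 input reads and ≥1 read per output. Fitness is the logarithm of genotype enrichment relative to wild-type enrichment, from inverse-variance-weighted replicate averages, with a logarithm base of 2.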

Variant | polymerase ribozyme fitness (log ratio)
U55G C85U C131U U134C | 1.73
U55A U77A | ≤ -4.2
U55C C63U C85G A107U A142U U145A | ≤ -4.2
U56A C76U | 0.105
U55G G81A C118U U135G | -3.84
U56A C85U A142U | -1.06
U56A C149U | -0.627
U56A G84A | -1.06
U55C A73U A97U U144G | -1.48
U55A U135A | -1.74
U55C G83C A115C C132U | -2.06
U56A C95A C103G C132A U146A | ≤ -4.2
U56A G136A | -0.463
U55G C63U G81U C87G U102G C116G A150C | ≤ -4.2
U55G C57G A97G A106C | -3
U55G A60G C79U A119C | -2.12
U55G G94A A98U C118A | -1.56
U55G U134A U139A | ≤ -4.2
U56A C96U A138U | -4.06
U56A C96U C116U G143A | -3.36
U55G C105U G141U U145C U146G | -3.09
U56A G86A | -1.16
U55A U78C C123G | -0.403
U56A A66G C95U C99U A120G | ≤ -4.2

Variant | polymerase ribozyme fitness (log ratio)
U55A U109G A137U | -4.19
U55G G81A G141C U146G | -2.62
U56A G80C G92A | ≤ -4.2
U55G U127C | -1.36
U55G U127A | -3.34
U55G G62A C116G | -1.02
U56A C69U A106G | -1.79
U56C C57U A89U C95G A137C | -4.07
U56A A60U C93U G141U | -3.71
U55G A60G | 0.467
U56G G68C C85A C114A | ≤ -4.2
U56G C93U | -3.02
U56A G70C | -3.24
U55G C69A C99U | -0.89
U56G C108A | ≤ -4.2
U56C U109A | -1.87
U55G A106C | -0.416
U55C C85U A97U | -1.16
U56A A89U | -0.431
U55G G84U | -0.827
U56A C95U C99U C125G | -2.57
U56A G81A C103G A121G A122U | -1.56
U56G G68U | ≤ -4.2
U56A G88U | -3.06

Variant | polymerase ribozyme fitness (log ratio)
U56A G88C | -4.12
U55G A73U | -2.35
U56A C96U G133A | ≤ -4.2
U55A U78G G84U C87G C118U | ≤ -4.2
U56C G143U | -2.95
U56G C76A U77C C93G C105A U109G | ≤ -4.2
U56A G71U C125G | -3.78
U55G G58A C93A U109G | -3.3
U56A A91G U148C | -3.72
U55G G84U A106G | -1.26
U56G G71C C85U C116A | ≤ -4.2
U56A G92A U148G | ≤ -4.2
U56A A60G | 0.416
U55G C87U U130C | -0.00301
U56G C93U A107G A120U | -4.12
U56C G58A G84A U145G | 0.113
U55G G80A | -2.09
U56A A89U C96G | -1
U56A G83C G100U | ≤ -4.2
U56A C93A A98U A107G C129U | ≤ -4.2
U56A G58A C72U C87U U109G G136A U144C | -4.13
U55G G86U | -0.476
U56A U146A U148C | -2.96
U56A G141A | 0.775

Variant | polymerase ribozyme fitness (log ratio)
U56G C76U A91G A122U C149G | ≤ -4.2
U56G G70U C85U U151A | ≤ -4.2
U56A G58A G88C | -3.84
U55G C108G G133U A142C | -4.19
U55G C72U | -0.349
U56A G58C G92U C93A C118A | -3.82
U56A C95U C96G A110G A119G G152U | -4.13
U56G G59C C85G U135A | -2.51
U56A C72G | -3.76
U56A G71U U78G C85U G143U | ≤ -4.2
U56A C76A A119U A121C G126U | -1.11
U56A G83U C93G | ≤ -4.2
U56A C85U A121U C123G G124A U134A | -2.61
U55A U139G | -0.865
U56A G58U A115G | -0.802
U56A U61G A91C U127C U148C A150U | ≤ -4.2
U55G C93U | -1.83
U55G C93G | -4.19
U56A U144A | -0.302
U56A C96A C103U | 0.293
U55A U82G C116A A121U A137C | -3.5
U56G C57A G81A A107C G117A | ≤ -4.2
U56A G58C C93U U127G U145A | -3.83
U56A C87G G94C U104C G117U A119U U134C | -3.94

Variant | polymerase ribozyme fitness (log ratio)
U56A C79U G83A | ≤ -4.2
U56A G74C | -4.17
U56C C96U | -0.496
U56G C79U U90A A107U C114G | ≤ -4.2
U56G C63A A120G | -0.244
U56G C87A C103U C114U C125U | ≤ -4.2
U56A A73C G94C | -3.51
U55G G84A A89U C103U | -1.64
U56A C57A U144A | -0.177
U55G C87U | -1.42
U56A C57U G83A | 0.0377
U56G G68U G81A G84A A91C U135C | ≤ -4.2
U55G U82A U148C | -2.51
U56A C57U | 0.273
U56A A115C | -0.798
U56A U82C C93U | -1.41
U56A C79U C118G C132A | -4.05
U56A C57U U82A G84A G92U A106C G143C | ≤ -4.2
U55G U134C G143U | -1.98
U55G C75U | -0.769
U56C U82G | -0.541
U56A G80U C99A A122C | -1.16
U55A U127G | -2.72
U56A U104G A115C A142C | ≤ -4.2

Variant | polymerase ribozyme fitness (log ratio)
U55G G84U A98C U151C | ≤ -4.2
U56A G84U A89C A142U | -3.24
U56A A64U | -4.19
U56A A73G C87G | ≤ -4.2
U56A G83C C87U A89C C108U U144C | ≤ -4.2
U56A G58A C87G G133U | ≤ -4.2
U56G C93U A110U | -3.71
U56A C75G C93A A98G A106C G141A | ≤ -4.2
U55G G65A A97U U130C | -1.27
U56A C57A G84A | -0.56
U56A C57A C85U C87U | -0.523
U55C G92C | -0.135
U56C G59A G92U U135A | -2.19
U56A G58C C93A G124A | -2.36
U56A C96U | -0.499
U56A G92C U139A G140U | -3.76
U56A A73U C79G G88A | ≤ -4.2
U55A U145C | 0.505
U55G C57G U101G | 0.189
U56A G58U C69U C95A C96A C118U | -2.19
U55G A73C C87A | ≤ -4.2
U55G C57A C69U U109G C116A | -0.0851
U56A C125U A142C | -3.74
U55G C72U G136C | -3.74

Variant | polymerase ribozyme fitness (log ratio)
U56A A91G | -3.41
U55G U145A | -0.604
U56C C85A C131G | -3.7
U56A U82C C87G A150U | -3.31
U56A U148G | -3.6
U55G C72U G83U C96U | -1.11
U56A A97U | -1.47
U56A A97G | -0.89
U55A U78G G94U C114G | ≤ -4.2
U56C U109A U127C | -3.65
U56A C69A G84A | -1.63
U55G G58C G59U G67C U78A C95U A113G | ≤ -4.2
U55G G71U | -1.86
U56A C103G | -0.914
U56A C103U | -0.0268
U56A G84A U90C C125A | ≤ -4.2
U56A C125G | -1.56
U56G G81U A91G | -3.38
U56G A73G C87A G94U C118U | ≤ -4.2
U56A G58A A89C C95G A122C G124C G141C | -1.54
U56A A89G C99A | -1.89
U56A G80U | -0.898
U55G A89G G124C U146C | -1.44
